How the values were obtained:
[1] = molecular target: CgluDopGS, Dop-loop variant of Dop from Corynebacterium glutamicum (Dop-loop H43-I77 replaced with (GS)4) (Corynebacterium glutamicum); assay: ITC
[2] = molecular target: T1, Depupylase Dop from Corynebacterium glutamicum, wild type (Corynebacterium glutamicum); assay: ITC
T1 chain: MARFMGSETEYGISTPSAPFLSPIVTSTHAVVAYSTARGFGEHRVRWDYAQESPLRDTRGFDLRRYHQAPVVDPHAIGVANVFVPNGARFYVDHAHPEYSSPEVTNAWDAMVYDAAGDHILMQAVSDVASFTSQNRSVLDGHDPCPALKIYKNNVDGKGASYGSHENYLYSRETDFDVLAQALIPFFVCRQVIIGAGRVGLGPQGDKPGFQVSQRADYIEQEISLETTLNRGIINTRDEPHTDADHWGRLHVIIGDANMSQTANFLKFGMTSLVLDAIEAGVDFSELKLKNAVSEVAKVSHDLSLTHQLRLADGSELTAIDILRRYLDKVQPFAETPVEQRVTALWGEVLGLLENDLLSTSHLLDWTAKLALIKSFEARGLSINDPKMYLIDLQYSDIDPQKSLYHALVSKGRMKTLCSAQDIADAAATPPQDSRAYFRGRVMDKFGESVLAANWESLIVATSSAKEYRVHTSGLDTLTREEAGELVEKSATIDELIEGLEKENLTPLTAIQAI

B1: Prokaryotic ubiquitin-like protein Pup from Corynebacterium glutamicum with C-terminal glutamate (natural protein)
chain: MNAKQTQIMGGGGRDEDNAEDSAQASGQVQINTEGVDSLLDEIDGLLENNAEEFVRSYVQKGGE
[1]
  Kd: 76 nM
[2]
  Kd: 186 nM
